From patent publication US20130225506A1 (POLYPHOR, published 2013)
Square brackets hold non-standard residues; d marks the D form. Primed or numbered codes have the meaning given here. dPro(cis-4-NH2) = N[C@H]1CN[C@@H](C(=O)O)C1; hArg = N=C(N)NCCCC[C@H](N)C(=O)O; Tic = O=C(O)[C@@H]1Cc2ccccc2CN1; Agb = N=C(N)NCC[C@H](N)C(=O)O; Orn = NCCC[C@H](N)C(=O)O; Dab = NCC[C@H](N)C(=O)O; Pip′ = not defined here

Target: chemokine receptor CXCR7 (UniProt P25106 1-362, limits assumed)
Assay: cell-based or functional assay

Chain of chemokine receptor CXCR7 (P25106 whole entry): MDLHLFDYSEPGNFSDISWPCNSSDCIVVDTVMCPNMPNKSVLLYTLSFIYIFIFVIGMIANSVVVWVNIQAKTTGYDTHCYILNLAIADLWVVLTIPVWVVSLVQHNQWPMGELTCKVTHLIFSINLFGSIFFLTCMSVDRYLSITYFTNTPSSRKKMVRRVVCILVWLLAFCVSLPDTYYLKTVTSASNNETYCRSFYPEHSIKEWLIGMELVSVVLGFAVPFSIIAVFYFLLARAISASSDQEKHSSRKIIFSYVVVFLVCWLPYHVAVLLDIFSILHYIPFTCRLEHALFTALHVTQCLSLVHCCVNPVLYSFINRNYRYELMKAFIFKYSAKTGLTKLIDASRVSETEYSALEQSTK

| Binder | β-Arrestin EC50 [nM] |
| --- | --- |
| cyclo(W[dF]W[Orn][dPro(cis-4-NH2)][Tic]) (SMILES NCCC[C@@H]1NC(=O)[C@H](Cc2c[nH]c3ccccc23)NC(=O)[C@@H](Cc2ccccc2)NC(=O)[C@H](Cc2c[nH]c3ccccc23)NC(=O)[C@@H]2Cc3ccccc3CN2C(=O)[C@H]2C[C@@H](N)CN2C1=O) [cyclo(-Trp-^DPhe-Trp-Orn-^DPro((4R)NH2)-Tic-)] | 26.1 |
| cyclo(I[dR]KW[dP]T) (SMILES CC[C@H](C)[C@@H]1NC(=O)[C@H]([C@@H](C)O)NC(=O)[C@H]2CCCN2C(=O)[C@H](Cc2c[nH]c3ccccc23)NC(=O)[C@H](CCCCN)NC(=O)[C@@H](CCCNC(=N)N)NC1=O) [cyclo(-Ile-^DArg-Lys-Trp-^DPro-Thr-)] | 78.7 |
| cyclo(W[dF]W[Dab][dPro(cis-4-NH2)][Tic]) (SMILES NCC[C@@H]1NC(=O)[C@H](Cc2c[nH]c3ccccc23)NC(=O)[C@@H](Cc2ccccc2)NC(=O)[C@H](Cc2c[nH]c3ccccc23)NC(=O)[C@@H]2Cc3ccccc3CN2C(=O)[C@H]2C[C@@H](N)CN2C1=O) [cyclo(-Trp-^DPhe-Trp-Dab-^DPro((4R)NH2)-Tic-)] | 13.6 |
| cyclo([hArg][dF]WR[dPro(cis-4-NH2)][Tic]) (SMILES N=C(N)NCCCC[C@@H]1NC(=O)[C@@H]2Cc3ccccc3CN2C(=O)[C@H]2C[C@@H](N)CN2C(=O)[C@H](CCCNC(=N)N)NC(=O)[C@H](Cc2c[nH]c3ccccc23)NC(=O)[C@@H](Cc2ccccc2)NC1=O) [cyclo(-hArg-^DPhe-Trp-Arg-^DPro((4R)NH2)-Tic-)] | 12.2 |
| cyclo(Y[dF]WR[dPro(cis-4-NH2)][Tic]) (SMILES N=C(N)NCCC[C@@H]1NC(=O)[C@H](Cc2c[nH]c3ccccc23)NC(=O)[C@@H](Cc2ccccc2)NC(=O)[C@H](Cc2ccc(O)cc2)NC(=O)[C@@H]2Cc3ccccc3CN2C(=O)[C@H]2C[C@@H](N)CN2C1=O) [cyclo(-Tyr-^DPhe-Trp-Arg-^DPro((4R)NH2)-Tic-)] | 20.9 |
| cyclo(W[dF]WH[dPro(cis-4-NH2)][Tic]) (SMILES N[C@@H]1C[C@@H]2C(=O)N3Cc4ccccc4C[C@H]3C(=O)N[C@@H](Cc3c[nH]c4ccccc34)C(=O)N[C@H](Cc3ccccc3)C(=O)N[C@@H](Cc3c[nH]c4ccccc34)C(=O)N[C@@H](Cc3c[nH]cn3)C(=O)N2C1) [cyclo(-Trp-^DPhe-Trp-His-^DPro((4R)NH2)-Tic-)] | 20.4 |
| cyclo([Agb][dF]WR[dPro(cis-4-NH2)][Tic]) (SMILES N=C(N)NCCC[C@@H]1NC(=O)[C@H](Cc2c[nH]c3ccccc23)NC(=O)[C@@H](Cc2ccccc2)NC(=O)[C@H](CCNC(=N)N)NC(=O)[C@@H]2Cc3ccccc3CN2C(=O)[C@H]2C[C@@H](N)CN2C1=O) [cyclo(-Agb-^DPhe-Trp-Arg-^DPro((4R)NH2)-Tic-)] | 452 |
| cyclo(R[dF]WR[dPro(cis-4-NH2)][Tic]) (SMILES N=C(N)NCCC[C@@H]1NC(=O)[C@@H]2Cc3ccccc3CN2C(=O)[C@H]2C[C@@H](N)CN2C(=O)[C@H](CCCNC(=N)N)NC(=O)[C@H](Cc2c[nH]c3ccccc23)NC(=O)[C@@H](Cc2ccccc2)NC1=O) [cyclo(-Arg-^DPhe-Trp-Arg-^DPro((4R)NH2)-Tic-)] | 248 |
| cyclo([Pip′][dF]WR[dPro(cis-4-NH2)][Tic]) [cyclo(-Pip-^DPhe-Trp-Arg-^DPro((4R)NH2)-Tic-)] | 882 |
| cyclo(W[dF]WK[dPro(cis-4-NH2)][Tic]) (SMILES NCCCC[C@@H]1NC(=O)[C@H](Cc2c[nH]c3ccccc23)NC(=O)[C@@H](Cc2ccccc2)NC(=O)[C@H](Cc2c[nH]c3ccccc23)NC(=O)[C@@H]2Cc3ccccc3CN2C(=O)[C@H]2C[C@@H](N)CN2C1=O) [cyclo(-Trp-^DPhe-Trp-Lys-^DPro((4R)NH2)-Tic-)] | 138 |
